Data as given in patent US20260274968A1 (FUSE BIOTHERAPEUTICS, published 2026).
Positions count from the first letter of the chain named.

How the values were obtained:
Experiment in all cases: cell-based or functional assay
[1] = biological target: T1, human IL-18 receptor complex (IL-18Rα/β) (human, UniProt Q13478 19-541; O95256 20-599)
T1 sequence (looked up) 1: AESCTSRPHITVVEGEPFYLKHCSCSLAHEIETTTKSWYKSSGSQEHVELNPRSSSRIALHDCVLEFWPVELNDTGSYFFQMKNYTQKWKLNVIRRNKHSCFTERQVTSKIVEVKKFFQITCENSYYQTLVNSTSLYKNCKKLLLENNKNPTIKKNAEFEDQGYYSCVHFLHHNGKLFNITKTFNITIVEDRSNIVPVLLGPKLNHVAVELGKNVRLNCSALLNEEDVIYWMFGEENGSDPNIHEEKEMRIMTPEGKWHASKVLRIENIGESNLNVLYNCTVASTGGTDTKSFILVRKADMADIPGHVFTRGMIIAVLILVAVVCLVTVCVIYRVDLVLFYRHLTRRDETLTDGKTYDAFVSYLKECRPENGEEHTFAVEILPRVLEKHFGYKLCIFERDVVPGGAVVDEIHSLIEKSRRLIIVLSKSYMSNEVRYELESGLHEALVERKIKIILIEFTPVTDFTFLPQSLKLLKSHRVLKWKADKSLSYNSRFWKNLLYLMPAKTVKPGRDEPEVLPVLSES
T1 sequence (looked up) 2: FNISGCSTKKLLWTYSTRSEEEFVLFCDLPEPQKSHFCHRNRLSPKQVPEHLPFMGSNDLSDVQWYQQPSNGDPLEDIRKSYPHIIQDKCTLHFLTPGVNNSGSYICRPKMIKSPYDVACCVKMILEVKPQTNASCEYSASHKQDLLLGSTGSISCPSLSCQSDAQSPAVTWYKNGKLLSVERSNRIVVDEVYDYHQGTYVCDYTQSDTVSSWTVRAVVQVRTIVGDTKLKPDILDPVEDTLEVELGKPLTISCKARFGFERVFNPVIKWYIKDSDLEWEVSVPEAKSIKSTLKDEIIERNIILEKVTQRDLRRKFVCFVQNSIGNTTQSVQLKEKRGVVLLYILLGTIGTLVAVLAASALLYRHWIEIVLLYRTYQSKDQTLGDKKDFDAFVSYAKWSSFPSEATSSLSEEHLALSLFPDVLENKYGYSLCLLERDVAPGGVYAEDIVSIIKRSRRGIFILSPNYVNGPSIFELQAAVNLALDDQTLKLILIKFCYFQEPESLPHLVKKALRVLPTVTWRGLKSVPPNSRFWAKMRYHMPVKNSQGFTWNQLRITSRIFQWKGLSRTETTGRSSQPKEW

[2] = biological target: T2, human recombinant IL-18-BP (human, UniProt O95998 31-194)
T2 sequence (looked up): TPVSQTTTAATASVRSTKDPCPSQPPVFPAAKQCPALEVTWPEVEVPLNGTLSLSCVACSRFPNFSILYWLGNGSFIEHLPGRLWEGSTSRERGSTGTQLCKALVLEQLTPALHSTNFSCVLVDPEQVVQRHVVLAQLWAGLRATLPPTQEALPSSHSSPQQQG

[3] = biological target: T1, human IL-18 receptor complex (IL-18Rα/β); remark: listed apart in the source
[4] = biological target: T1, human IL-18 receptor complex (IL-18Rα/β); remark: listed apart in the source

B1: IL-18AV released from FUSE-442 by enterokinase (ligand)
chain: YFGKLESKLSVIRNLNDQVLFIDQGNRPLFEDMTDSDVRDNAPRTIFIISMYKDSQPRGMAVTISVKVEKISTLSVENKIISFKEMNPPDNIKDTKSDIIFFQRSVPGHDNKMQFESSSYEGYFLAVEKERDLFKLILKKEDELGDRSIMFTVQNED
**Q.** B1 was tested. Which “EC50-SEAP, HEK-Blue IL-18 reporter cells, EK-cleaved FUSE-442 titrated in medium alone (row 'FUSE442 + EK')” value [1] did it give?
**A.** The value was 0.0186 ng/mL.

**Q.** What about the “EC50-SEAP, HEK-Blue IL-18 reporter cells, EK-cleaved FUSE-442 titrated in medium with 1.25 µg/ml rhIL-18BP (row 'FUSE442 + EK +BP')” value [2] of the same binder?
**A.** Its value is 0.211 ng/mL.

B2: IL-18mut2AV released from FUSE-424 by enterokinase (ligand)
chain: B1 chain with M51K, K53G, M60L, M113V
**Q.** With B2 as the binder, how does the “EC50-SEAP, HEK-Blue IL-18 reporter cells, EK-cleaved FUSE-424 titrated in medium alone (table G beside graph F 'EK-FUSE424'; the table row itself is labelled 'FUSE442 + EK')” value [3] read?
**A.** The value was 0.0034 ng/mL.

B3: FUSE-782 (antibody, human IgG1, kappa, L234A L235A)
heavy 1: QVQLVESGGGVVQPGRSLRLDCKASGITFSNSGMHWVRQAPGKGLEWVAVIWYDGSKRYYADSVKGRFTISRDNSKNTLFLQMSSLRAEDTAVYYCATNDDYWGQGTLVTVSSASTKGPSVFPLAPSSKSTSGGTAALGCLVKDYFPEPVTVSWNSGALTSGVHTFPAVLQSSGLYSLSSVVTVPSSSLGTQTYICNVNHKPSNTKVDKKVEPKSCDKTHTCPPCPAPEAAGGPSVFLFPPKPKDTLMISRTPEVTCVVVDVSHEDPEVKFNWYVDGVEVHNAKTKPREEQYNSTYRVVSVLTVLHQDWLNGKEYKCKVSNKALPAPIEKTISKAKGQPREPQVYTLPPSREEMTKNQVSLSCAVKGFYPSDIAVEWESNGQPENNYKTTPPVLDSDGSFFLVSKLTVDKSRWQQGNVFSCSVMHEALHNRFTQKSLSLSPGK
heavy 2: QVQLVESGGGVVQPGRSLRLDCKASGITFSNSGMHWVRQAPGKGLEWVAVIWYDGSKRYYADSVKGRFTISRDNSKNTLFLQMSSLRAEDTAVYYCATNDDYWGQGTLVTVSSASTKGPSVFPLAPSSKSTSGGTAALGCLVKDYFPEPVTVSWNSGALTSGVHTFPAVLQSSGLYSLSSVVTVPSSSLGTQTYICNVNHKPSNTKVDKKVEPKSCDKTHTCPPCPAPEAAGGPSVFLFPPKPKDTLMISRTPEVTCVVVDVSHEDPEVKFNWYVDGVEVHNAKTKPREEQYNSTYRVVSVLTVLHQDWLNGKEYKCKVSNKALPAPIEKTISKAKGQPREPQVYTLPPSREEMTKNQVSLWCLVKGFYPSDIAVEWESNGQPENNYKTTPPVLDSDGSFFLYSKLTVDKSRWQQGNVFSCSVMHEALHNHYTQKSLSLSPGGGGGSGGGGSGGGGSGGGGSAAEPVEDNSINFVAMKFIDNTLYFIAENDENGGGSYFGKLESKLSVIRNLNDQVLFIDQGNRPLFEDMTDSDSRDNAPRTIFIISKYGDSQPRGLAVTISVKSEKISTLSSENKIISFKEMNPPDNIKDTKSDIIFFQRSVPGHDNKVQFESSSYEGYFLASEKERDLFKLILKKEDELGDRSIMFTVQNED
light: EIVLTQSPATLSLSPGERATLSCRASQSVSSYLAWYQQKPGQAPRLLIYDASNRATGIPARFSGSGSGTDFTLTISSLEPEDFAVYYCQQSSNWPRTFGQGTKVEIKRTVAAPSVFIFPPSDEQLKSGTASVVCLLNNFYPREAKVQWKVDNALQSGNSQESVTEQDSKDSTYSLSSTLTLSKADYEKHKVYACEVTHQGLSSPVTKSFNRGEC
**Q.** Which “IL18 biological activity on HEK Blue IL18 (trans activity only), attenuation relative to recombinant human IL18” value [4] does the source give for B3 here?
**A.** Its value is > 100000 fold.

**Q.** And the “SEAP release of PD-1 decorated HEK Blue IL18 (cis activity), increase relative to non targeted FUSE827” value [4]?
**A.** Its value is ~100 fold.

**Q.** And the “SEAP release, PD-1 decorated HEK Blue IL-18 against non-decorated HEK Blue IL18” value [4]?
**A.** Its value is ~100 fold.

B4: FUSE-783 (antibody, human IgG1, kappa, L234A L235A)
heavy 1: B3 heavy 1
heavy 2: B3 heavy 2 with S471V, S535V, S565V, S573V, S624V
light: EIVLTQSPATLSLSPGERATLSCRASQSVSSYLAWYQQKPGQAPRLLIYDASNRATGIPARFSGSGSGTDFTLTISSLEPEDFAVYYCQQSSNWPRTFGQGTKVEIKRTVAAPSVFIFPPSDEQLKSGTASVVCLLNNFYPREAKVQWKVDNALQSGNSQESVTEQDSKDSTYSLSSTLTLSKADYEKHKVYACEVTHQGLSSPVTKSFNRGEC
**Q.** With B4 as the binder, how does the “IL18 biological activity on HEK Blue IL18 (trans activity only), attenuation relative to recombinant human IL18” value [4] read?
**A.** Its value is ~1000 fold.

**Q.** What about the “SEAP release of PD-1 decorated HEK Blue IL18 (cis activity), increase relative to non targeted FUSE775” value [4] of the same binder?
**A.** The value was ~30 fold.

**Q.** And the “SEAP release, PD-1 decorated HEK Blue IL-18 against non-decorated HEK Blue IL18” value [4]?
**A.** Its value is ~30 fold.
